Test results from patent US20250163146A1 (published 2025).

Molecular target: Nb.d4C4-1
Assay: SPR

Kd	Binder
1.63 nM	mDll4(N-EGF3) (ligand, biotinylated (site not stated)) GSGIFQLRLQEFVNQRGMLANGQSCEPGCRTFFRICLKHFQATFSEGPCTFGNVSTPVLGTNSFVVRDKNSGSGRNPLQLPFNFTWPGTFSLNIQAWHTPGDDLRPETSPGNSLISQIIIQGSLAVGKIWRTDEQNDTLTRLSYSYRVICSDNYYGESCSRLCKKRDDHFGHYECQPDGSLSCLPGWTGKYCDQPICLSGCHEQNGYCSKPDECICRPGWQGRLCNECIPHNGCRHGTCSIPWQCACDEGWGGLFCDQDLNYCTHHSPCKNGSTCSNSGPKGYTCTCLPGYTGEHCEL
1.43 nM	hDLL4(N-EGF5) (ligand, biotinylated in the flow cytometry titration (site not stated); not stated for the plate-coated protein) SGVFQLQLQEFINERGVLASGRPCEPGCRTFFRVCLKHFQAVVSPGPCTFGTVSTPVLGTNSFAVRDDSSGGGRNPLQLPFNFTWPGTFSLIIEAWHAPGDDLRPEALPPDALISKIAIQGSLAVGQNWLLDEQTSTLTRLRYSYRVICSDNYYGDNCSRLCKKRNDHFGHYVCQPDGNLSCLPGWTGEYCQQPICLSGCHEQNGYCSKPAECLCRPGWQGRLCNECIPHNGCRHGTCSTPWQCTCDEGWGGLFCDQDLNYCTHHSPCKNGATCSNSGQRSYTCTCRPGYTGVDCELELSECDSNPCRNGGSCKDQEDGYHCLCPPGYYGLHCEHSTLSCADSPCFNGGSCRERNQGANYACECPPNFTGSNCEK
